Series [1] deals with gld-1 FBEa RNA. Nature of the series: Electrophoretic mobility shift assay (EMSA), RNA binding. The arrangement: species or system C. elegans. Here is the method:
A 3′-Cy5-labeled synthetic RNA was ordered from IDT (gld-1 FBEa, 5′-[…]-3′). The FBF-2 proteins were serially diluted 2-fold from the highest concentration of 10 µM in the buffer used for gel filtration (20 mM HEPES pH 7.4, 150 mM NaCl, and 0.5 mM TCEP). 10 µl of the serially diluted protein samples were mixed with 10 µl RNA (10 nM) in a 2× buffer of 10 mM HEPES pH 7.4, 0.01% (v/v) Tween 20, 0.1 mg/ml BSA, 0.1 mg/ml yeast tRNA, and 2 mM DTT. For experiments in the presence of LST-1, LST-1 proteins at constant concentration were preincubated with FBF-2 at 4 °C for 2 h. The LST-1 concentrations were chosen based on their Kd’s for interaction with FBF-2. The final FBF-2 concentrations ranged from 5000 nM to 0.6 nM, and the LST-1 A or B concentrations were constant at 150 μM or 50 μM, respectively. The protein-RNA mixtures were incubated at 4 °C overnight. The samples were resolved on 10% TBE polyacrylamide gels run at constant voltage (100 V) with 1× TBE buffer at room temperature for 35 min. The gels were scanned and visualized with a Typhoon FLA 9500 imager using the Cy5 channel (excitation wavelength 635 nm). Band intensities were quantified with ImageQuant 5.2 (Cytiva). The data were fit with GraphPad Prism (version 9.2.0) using nonlinear regression with a one-site specific binding model. Mean Kd’s and standard error of the mean (SEM) from three or more technical replicates are reported (Supplementary Table 4). Full scan images for the replicates shown in the main figures and gel images for all replicates are included in a source data file.
A general note: In EMSA bound probe runs differently from free probe, usually more slowly.

In series [2] the target is gld-1 FBEa RNA. The series is described as follows: Surface plasmon resonance, RNA-binding kinetics. More on the design: species or system C. elegans. Here is the method:
Kinetics of FBF-2 binding to the gld-1 FBEa RNA were measured using a 2-channel OpenSPR instrument (Nicoya). A 3′-biotin-labeled synthetic RNA was ordered from Horizon Discovery (gld-1 FBEa, 5′-AUCAUGUGCCAUACA-biotin-3′). The 3′-biotinylated RNA was immobilized on streptavidin-treated biotin sensor chips (Nicoya). All experiments were performed at 20 °C with a buffer of 20 mM HEPES, pH 7.4, 150 mM NaCl, and 2 mM DTT. SPR data were collected using OpenSPR (Nicoya, version 4.3). FBF-2 proteins were injected with a flow rate of 20 µl/min. Data were obtained at five different protein concentrations (25, 50, 100, 200, and 400 nM for wild type RBD + CT; 12.5, 25, 50, 100, and 200 nM for RBD + CT mutants and wild type RBD). Sensor chips were regenerated using 0.05% or 0.1% (v/v) SDS. For each experiment, five binding curves were simultaneously fit using a 1:1 binding model with the TraceDrawer software (Ridgeview Instruments, version 1.9.1). Mean values and standard deviation were calculated from two technical replicates. Despite our efforts, the fit of the binding curves for the association phase of FBF-2 RBD and FBF-2 RBD + CT mutants is poorer than the fit for FBF-2 RBD + CT WT. The appearance of the curves is consistent with the derived kon and koff values, and importantly, the curve fit for the dissociation phase is better.
A general note: Surface plasmon resonance follows binding to a sensor surface in real time, without labels.

Series [3] can be described thus: Melting temperature of FBF-2 proteins. Format: physicochemical. Particulars: for thermal stability: in words, vs RBD alone or vs RBD + CT. On the procedure: Mutants of FBF-2 RBD + CT: Y479A (5′-[…]), L610A (5′-[…]), and Loop6A (E592A, D594A, E597A, E599A, E604A, E605A; 5′-[…]) were generated by site-directed mutagenesis with the primers indicated. Plasmid sequences were verified by DNA sequencing (Azenta Life Sciences). Protein variants were expressed and purified like wild type proteins. Melting temperatures of wild type and mutant proteins were assessed by differential scanning […]. Reaction mixtures (total volume of 20 μl) contained ~0.3 mg/ml FBF-2 proteins and Sypro Orange dye (1:1000 dilution) (Sigma). Fluorescent intensity was collected from 25 °C to 95 °C (3 °C increment/min) with a real time PCR instrument (Applied Biosystems™ QuantStudio 7 Flex System) using excitation and emission wavelengths of 470 nm and 586 nm, respectively. Protein Thermal Shift^TM software (Applied Biosystems, version 1.4) was used to analyze protein melting curves and calculate melting temperatures (Tm).

The mark [4] stands for this setting: no LST-1, mean ± SEM of independent technical replicates (n = 3-5), 4 °C overnight, pH 7.4, Cy5-RNA 5′-AUCAUGUGCCAUAC-3′.
Setting [5] is: derived from on/off rates, mean ± SD, two technical replicates.
Setting [6] is: mean ± SD, two technical replicates, 20 °C, pH 7.4, 1:1 model.
[7] abbreviates: mean ± SD, three technical replicates, ~0.3 mg/ml protein, Sypro Orange, 25 to 95 °C, fluorescence.

Positions count from the first letter of the chain named. Names may count otherwise. “And” between values parts separate entries of the source, which are not always exact repeats. Equal entries are not always repeated. Where two headings read alike, the source gives them in different places.

B1: FBF-2 RBD: FBF-2 RNA-binding domain, residues 164-575, lacking the C-terminal tail (protein)
chain: SNNVLPTWSLDSNGEMRSRLSLSEVLDSGDLMKFAVDKTGCQFLEKAVKGSLTSYQKFQLFEQVIGRKDDFLKLSTNIFGNYLVQSVIGISLATNDDGYTKRQEKLKNFISSQMTDMCLDKFACRVIQSSLQNMDLSLACKLVQALPRDARLIAICVDQNANHVIQKVVAVIPLKNWEFIVDFVATPEHLRQICSDKYGCRVVQTIIEKLTADSMNVDLTSAAQNLRERALQRLMTSVTNRCQELATNEYANYIIQHIVSNDDLAVYRECIIEKCLMRNLLSLSQEKFASHVVEKAFLHAPLELLAEMMDEIFDGYIPHPDTGKDALDIMMFHQFGNYVVQCMLTICCDAVSGRRQTKEGGYDHAISFQDWLKKLHSRVTKERHRLSRFSSGKKMIETLANLRSTHPIYELQ
modifications: left off: His6-SUMO, N-terminal, cleaved
A word on the Kd: it is the equilibrium constant for the complex coming apart. One may read the koff as the rate constant with which the complex falls apart. As usually defined, the kon is the second-order rate constant of association. A low value points to slow association. Take B1: the dissociation constant (Kd) in series [1] (in the presence of 50 μM LST-1 B, mean ± SEM, n = 3, 4 °C overnight, pH 7.4) amounted to 176 nM; in series [1] (setting [4]), 70 nM; in series [1] (no LST-1, replicate 1), 75 nM; in series [1] (no LST-1, replicate 2), 62 nM; in series [1] (no LST-1, replicate 3) it was 98 nM; in series [1] (no LST-1, replicate 4), 44 nM. Further, the Kd in series [1] (with 50 μM LST-1 B, replicate 1) was 148 nM; in series [1] (with 50 μM LST-1 B, replicate 2), 180 nM; in series [1] (with 50 μM LST-1 B, replicate 3), 201 nM; in series [2] (setting [5]), 6.6 ± 2.3 nM; in series [2] (replicate 1), 8.2 nM; in series [2] (replicate 2), 5 nM. Also, the koff was determined as 0.00086 s⁻¹ in series [2] (setting [6]); 0.000979 s⁻¹ in series [2] (replicate 1, read-out: koff); 0.00075 s⁻¹ in series [2] (replicate 2, read-out: koff). Moreover, the kon was determined as 136000 M⁻¹ s⁻¹ in series [2] (setting [6]), 120000 M⁻¹ s⁻¹ in series [2] (replicate 1) and 151000 M⁻¹ s⁻¹ in series [2] (replicate 2). Moreover, the Tm is 36.32 ± 0.05 °C in series [3] (setting [7]), 36.42 °C in series [3] (replicate 1), 36.28 °C in series [3] (replicate 2) and 36.28 °C in series [3] (replicate 3).

B2: FBF-2 RBD + CT: C. elegans FBF-2 RBD plus C-terminal tail, residues 164-632 (protein)
chain: SNNVLPTWSLDSNGEMRSRLSLSEVLDSGDLMKFAVDKTGCQFLEKAVKGSLTSYQKFQLFEQVIGRKDDFLKLSTNIFGNYLVQSVIGISLATNDDGYTKRQEKLKNFISSQMTDMCLDKFACRVIQSSLQNMDLSLACKLVQALPRDARLIAICVDQNANHVIQKVVAVIPLKNWEFIVDFVATPEHLRQICSDKYGCRVVQTIIEKLTADSMNVDLTSAAQNLRERALQRLMTSVTNRCQELATNEYANYIIQHIVSNDDLAVYRECIIEKCLMRNLLSLSQEKFASHVVEKAFLHAPLELLAEMMDEIFDGYIPHPDTGKDALDIMMFHQFGNYVVQCMLTICCDAVSGRRQTKEGGYDHAISFQDWLKKLHSRVTKERHRLSRFSSGKKMIETLANLRSTHPIYELQSSGHDSFKTDYFSTASEHDGPELEKNGIEEGSLMLEPRSNKSSVSVKFSSSGSHGDD
modifications: left off: His6-SUMO, N-terminal, cleaved
B2: the “fold weaker RNA-binding affinity” value in series [1] (RBD + CT vs RBD alone) was ~5 fold. The Kd in series [1] (setting [4]) is 334 nM; in series [1] (no LST-1, replicate 1) it was 294 nM; in series [1] (no LST-1, replicate 2), 394 nM; in series [1] (no LST-1, replicate 3), 379 nM; in series [1] (no LST-1, replicate 4), 270 nM; in series [1] (pH 7.4), 114 nM and 68 nM. Further, the dissociation constant (Kd) in series [1] (with 150 μM LST-1 A, replicate 1) came out at 111 nM; in series [1] (with 150 μM LST-1 A, replicate 2), 106 nM; in series [2] (setting [5]), 65.1 ± 21.1 nM; in series [2] (replicate 1), 80 nM; in series [2] (replicate 2), 50 nM. The “fold faster off rate” value in series [2] (RBD + CT vs RBD) is ~ 5 fold. The off-rate constant (koff) stood at 0.00442 s⁻¹ in series [2] (setting [6]); 0.00469 s⁻¹ in series [2] (replicate 1, read-out: koff); 0.00414 s⁻¹ in series [2] (replicate 2, read-out: koff). Moreover, the kon worked out at 71000 M⁻¹ s⁻¹ in series [2] (setting [6]), 58700 M⁻¹ s⁻¹ in series [2] (replicate 1) and 82500 M⁻¹ s⁻¹ in series [2] (replicate 2). Moreover, the thermal stability result in series [3] is “increased thermal stability compared to the RBD alone”. In addition, the Tm in series [3] (setting [7]) came out at 40.24 ± 0.12 °C; in series [3] (replicate 1) it was 40.06 °C; in series [3] (replicate 2), 40.48 °C; in series [3] (replicate 3), 40.20 °C.

B3: FBF-2 RBD + CT L610A: FBF-2 RBD + CT mutated in the C-terminal tail (L610A) (protein)
chain: B2 chain with L447A
modifications: left off: His6-SUMO, N-terminal, cleaved
As to B3, the Kd is 61 nM and 93 nM and 91 nM in series [1]; 51 nM in series [1] (setting [4]); 38 nM in series [1] (no LST-1, replicate 1); 32 nM in series [1] (no LST-1, replicate 2); 66 nM in series [1] (no LST-1, replicate 3); 30 nM in series [1] (no LST-1, replicate 4). For the same molecule, the dissociation constant (Kd) in series [1] (no LST-1, replicate 5) turned out to be 89 nM; in series [1] (pH 7.4), 82 ± 18 nM; in series [2] (setting [5]), 9.4 ± 3.6 nM; in series [2] (replicate 1), 11.9 nM; in series [2] (replicate 2) it was 6.8 nM. The dissociation rate constant (koff) in series [2] (setting [6]) was 1.36 ± 0.11 x10^-3 s^-1; in series [2] (replicate 1, read-out: koff), 0.00144 s⁻¹; in series [2] (replicate 2, read-out: koff) it was 0.00128 s⁻¹. For the same molecule, the kon in series [2] (setting [6]) was 15.5 ± 4.7 x10^4 M^-1 s^-1; in series [2] (replicate 1), 121000 M⁻¹ s⁻¹; in series [2] (replicate 2), 188000 M⁻¹ s⁻¹. The thermal stability entry in series [3] is on record as “melting temperature of the mutated protein near that of the RBD alone”. For the same molecule, the Tm came to 35.63 ± 0.05 °C in series [3] (setting [7]), 35.72 °C in series [3] (replicate 1), 35.58 °C in series [3] (replicate 2) and 35.58 °C in series [3] (replicate 3).

For the origin of these results see article PMC10641069, “Intra- and inter-molecular regulation by intrinsically-disordered regions governs PUF protein RNA binding” (Nature Communications, 2023).
